Reference: US20230295310A1 (ABCELLERA BIOLOGICS, published 2023)
Numbering of substitutions follows the chain as printed. Each block holds one binder with its values, some of them ahead of it.

Molecular target: human EGFR, C-terminal eGFP-tagged, on CHO-K1 cells (human, UniProt P00533 25-1210)
Test: cell-based or functional assay

EC50 CHO-K1 EGFR Low (nM); T cell activation bioassay, luciferase: 0.271 nM
EC50 CHO-K1 EGFR Med (nM); T cell activation bioassay, luciferase: 0.0226 nM
B1: GOMP001_bsAb_029 (bispecific antibody, human IgG1, kappa, L234A L235A)
heavy 1: QVQLVQSGAEVKKPGASVKVSCKASGYTFTSHWMHWVRKAPGQGLEWIGEFNPSNGRTNYNEEFKSKATMTVDTSTNTAYMELSSLRSEDTAVYYCASRDYDYDGRYFDYWGQGTLVTVSSASTKGPSVFPLAPSSKSTSGGTAALGCLVADYFPEPVTVSWNSGALTSGVHTFPAVLQSSGLYSLSSVVTVPSSSLGTQTYICNVNHKPSNTKVDEKVEPKSCDKTHTCPPCPAPEAAGGPSVFLFPPKPKDTLMISRTPEVTCVVVDVSHEDPEVKFNWYVDGVEVHNAKTKPREEQYNSTYRVVSVLTVLHQDWLNGKEYKCKVSNKALPAPIEKTISKAKGQPREPQVYTLPPSREEMTDNQVSLTCLVKGFYPSDIAVEWESNGQPENNYKTTPPVLMSDGSFFLASKLTVDKSRWQQGNVFSCSVMHEALHNHYTQKSLSLSPG
light 1: RIQMTQSPSSLSASVGDRVTITCSASSSVTYMYWYQDKPGKAPKLLIYDTSNLASGVPSRFSGSGSGTDYTFTISSLQPEDIATYYCQQWSSHIFTFGQGTKVEIKRTVAAPSVFIFPPSDKQLKSGTARVVCLLNNFYPREAKVQWKVDNALQSGNSQESVTEQDSKDSTYSLSSTLTLSKADYEKHKVYACEVTHQGLSSPVTKSFNRGEC
heavy 2: QVQLVQSGAEVKKPGASVKVSCKASGYTVTGYYMHWVRYAPGQGLEWMGWINPNSGGTNFAQRFQGRVTMTRDTSISTFYMDLNRLRSDDTAVYYCARGGAPVSYWFFDLWGRGTLVTVSSASTKGPSVFPLAPSSKSTSGGTAALGCLVKDYFPEPVTVSWNSGALTSGVHTFPAVLQSSGLYSLSSVVTVPSSSLGTQTYICNVNHKPSNTKVDKKVEPKSCDKTHTCPPCPAPEAAGGPSVFLFPPKPKDTLMISRTPEVTCVVVDVSHEDPEVKFNWYVDGVEVHNAKTKPREEQYNSTYRVVSVLTVLHQDWLNGKEYKCKVSNKALPAPIEKTISKAKGQPRRPRVYTLPPSREEMTKNQVSLVCLVKGFYPSDIAVEWESNGQPENNYKTTPPVLDSDGSFFLYSVLTVDKSRWQQGNVFSCSVMHEALHNHYTQKSLSLSPG
light 2: DIQMTQSPSSLSASVGDRVTITCRASQSISRYLNWYQRKPGDAPKVLIYNTSSLKSGVPSRFSGSGSGTDFTLTISSLQPEDFGTFYCQQSHSTPFTFGPGTKVDIKRTVAAPSVFIFPPSDEQLKSGTASVVCLLNNFYPREAKVQWKVDNALQSGNSQESVTEQDSKDSTYSLSSTLTLSKADYEKHKVYACEVTHQGLSSPVTKSFNRGEC

EC50 CHO-K1 EGFR Low (nM); T cell activation bioassay, luciferase: 0.0644 nM
EC50 CHO-K1 EGFR Med (nM); T cell activation bioassay, luciferase: 0.00272 nM
B2: GOMP001_bsAb_030 (bispecific antibody, human IgG1, kappa, L234A L235A)
heavy 1: B1 heavy 2
light 1: B1 light 2
heavy 2: QVQLVQSGAEVKKPGASVKVSCKASGYTFTSHWMHWVRYAPGQGLEWIGEFNPSNGRTNYNEKFKSKATMTVDTSTNTAYMELSSLRSEDTAVYYCASRDYDYDGRYFDYWGRGTLVTVSSASTKGPSVFPLAPSSKSTSGGTAALGCLVKDYFPEPVTVSWNSGALTSGVHTFPAVLQSSGLYSLSSVVTVPSSSLGTQTYICNVNHKPSNTKVDKKVEPKSCDKTHTCPPCPAPEAAGGPSVFLFPPKPKDTLMISRTPEVTCVVVDVSHEDPEVKFNWYVDGVEVHNAKTKPREEQYNSTYRVVSVLTVLHQDWLNGKEYKCKVSNKALPAPIEKTISKAKGQPRRPRVYTLPPSREEMTKNQVSLVCLVKGFYPSDIAVEWESNGQPENNYKTTPPVLDSDGSFFLYSVLTVDKSRWQQGNVFSCSVMHEALHNHYTQKSLSLSPG
light 2: B1 light 1 with R1D, D37R, K41D, K122E, R130S
